Drawing on article doi:10.1101/2025.11.17.688911, this text covers run frequency of FL KIF1A on MTs decorated with MAP9 for one substance.

For this experiment, the target named is full-length (FL) human MAP9 (GFP::Human MAP9::strepII) (human) (UniProt Q49MG5).
Sequence of full-length (FL) human MAP9 (GFP::Human MAP9::strepII) (human) (Q49MG5 whole entry): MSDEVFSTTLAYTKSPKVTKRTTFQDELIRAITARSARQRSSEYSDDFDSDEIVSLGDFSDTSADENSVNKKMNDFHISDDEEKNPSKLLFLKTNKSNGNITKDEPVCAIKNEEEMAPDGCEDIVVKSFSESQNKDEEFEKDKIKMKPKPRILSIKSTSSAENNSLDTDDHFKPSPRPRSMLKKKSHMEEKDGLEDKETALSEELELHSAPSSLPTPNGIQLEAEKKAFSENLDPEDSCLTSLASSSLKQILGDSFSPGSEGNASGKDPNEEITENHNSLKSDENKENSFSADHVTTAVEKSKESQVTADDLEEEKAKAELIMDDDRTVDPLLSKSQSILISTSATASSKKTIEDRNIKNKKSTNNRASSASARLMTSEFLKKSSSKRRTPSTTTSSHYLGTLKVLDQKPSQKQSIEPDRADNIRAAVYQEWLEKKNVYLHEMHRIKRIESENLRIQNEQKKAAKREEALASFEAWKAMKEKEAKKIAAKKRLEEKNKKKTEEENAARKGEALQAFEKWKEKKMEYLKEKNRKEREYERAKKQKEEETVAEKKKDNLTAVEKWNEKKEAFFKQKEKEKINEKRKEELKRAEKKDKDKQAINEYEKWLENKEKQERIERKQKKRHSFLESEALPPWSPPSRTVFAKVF

“FL KIF1A (Human KIF1A::yBBR::strepII) (from UniProt Q12756 1-1690) (natural protein)” returned a run frequency of FL KIF1A on MTs decorated with MAP9 at low concentrations (<60 nM); slightly inhibited at higher concentrations of 2 fold.
